According to paper doi:10.1101/2023.07.18.549521:

Biological target: LC3B LIR docking site (LDS) mutant (F52A/L53A) (UniProt Q9GZQ8)
Experiment: ITC

tepsin LIR motif peptide (residues 185-193)
Kd: > 300 µM
